Laboratory results: US11827690B2, “ApoC-II mimetic peptides” (THE UNITED STATES OF AMERICA, as represented by the …, priority 2017, dated 2023)
Non-standard residues stand in square brackets, D forms with d. No end group written: not given here. Nle = CCCC[C@H](N)C(=O)O

How the values were obtained:
[1] = biological target: T1, bovine LPL (Bos taurus, UniProt P11151); assay: in vitro LPL assay using apoC-II deficient patient sera as substrate; assay type: biochemical
T1 sequence (P11151 29-478): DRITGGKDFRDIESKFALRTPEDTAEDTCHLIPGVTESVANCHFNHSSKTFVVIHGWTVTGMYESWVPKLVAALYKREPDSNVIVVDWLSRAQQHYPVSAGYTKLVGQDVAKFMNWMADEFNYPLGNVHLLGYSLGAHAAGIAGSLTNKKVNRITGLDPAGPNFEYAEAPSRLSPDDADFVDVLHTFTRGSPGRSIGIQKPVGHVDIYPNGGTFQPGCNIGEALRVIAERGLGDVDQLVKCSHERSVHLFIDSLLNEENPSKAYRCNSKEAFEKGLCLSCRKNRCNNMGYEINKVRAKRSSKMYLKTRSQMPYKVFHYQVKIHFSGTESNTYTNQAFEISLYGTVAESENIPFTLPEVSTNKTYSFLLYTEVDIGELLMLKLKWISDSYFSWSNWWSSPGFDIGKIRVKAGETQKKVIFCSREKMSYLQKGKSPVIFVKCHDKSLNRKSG
Method: (§1) Preparation of LPL: frozen stock of 10 μL of 0.5 mg/mL bovine LPL was used and diluted 1:100 (10 μL+990 μL of PBS).
Preparation of 20% Intralipid: 2000 mg/dL TG Intralipid was used to prepare 3 mg/dL TG Intralipid by diluting 1.5 μL of the stock with 998.5 μL PBS, or by diluting the stock 1:10 first and then mixing 15 μL of the diluted stock with 985 μL PBS. When apoC-II deficient human serum was used as a substrate, a frozen 10 μL aliquot of 1711 mg/dL (TG) was diluted by adding 990 μL PBS (1:100 dilution).
(§2) Preparation of free fatty acid (NEFA) assay: NEFA reagents were purchased from Wako Diagnostics, Wako Life Sciences, Inc. Reagent A was prepared by mixing Coloring Reagent A with Solvent A (225 μL per well). Reagent B was prepared by mixing Coloring Reagent B with Solvent B (75 μL per well). 5 nmoL oleic acid standard was prepared by diluting 20 μL of 1 mM oleic acid stock (WAKO NEFA standard solution) with 180 μL of 0.2% BSA.
(§3) LPL activity assay: 10 μL of Intralipid, human plasma sample, or mouse plasma sample was added in each well using repeater pipette. 10 μL (or 15 μL in the wells with no LPL control) of PBS and 10 μL of 1% BSA was added in each well using repeater pipette. 10 μL of peptides were added to corresponding wells in vertical triplicates (lowest concentration is on a left, highest is on the right). The plate was spun down at 1000 RPM for 10 seconds to mix and to remove the solutions from the wall of each well. The plate was put on ice and 5 μL of LPL was added using repeater pipette. The plate was spun down again at 1000 RPM for 10 seconds. The plate was covered and put back on ice for an incubation of 30 min. The plate was then moved to 37° C. and incubated for 1 hour.
(§4) Free fatty acids (NEFA) assay: 45 μL of 5 nmoL standard and 0 nmoL control (0.2% BSA) were added to corresponding wells. 225 μL of reagent A was added in each well using the reagent tray and 12-channel pipette. The plate was incubated for 10 min before 75 μL of reagent B was added to each well using the reagent tray and 12-channel pipette. The plate was not covered due to the high volume. The absorbance at 550 nm and 660 nm was measured.

[2] = system: VLDL isolated from human plasma; assay: ApoC-III displacement study in VLDL isolated from human plasma; assay type: binding
Method: VLDL or chylomicrons isolated from human plasma were incubated with an apoC-II mimetic peptide for 1 hour at 37° C. and washed 3 times with PBS using spin filter with 100 kDa cutoff membrane. […] ApoC-I, apoC-II, apoC-III, and apoE bands were identified by their corresponding size.

[3] = system: apoC-II knockout mice; assay: plasma lipids of apoC-II knockout mice after peptide injection; assay type: in vivo
Method: C57Bl/6 mice (wild-type), apoC-II knockout (apoC-II KO) mice, and apoC-III transgenic mice were used for in vivo study. The C57Bl/6 mice (wild-type) were purchased from Taconic Biosciences Inc. The apoC-II KO mice were created as described in Sakurai et al., J Pharmacol Exp Ther 356:341-353, 2016. The apoC-III transgenic mice were generated by overexpressing human apoC-III in C57Bl/6 mice. See Qu et al., J. Lipid Res. 48:1476-1487, 2007.
Mice were fasted overnight (approximately 12 hours) before the study and 6 hours during the study, the next day. The apoC-II mimetic peptides were synthetically produced and free of biological contamination (not available as FDA approved compounds/treatment). […] W.) administered either subcutaneous injection (S.Q. or S.C.), intraperitoneal injection (I.P.) or intravenous injection (I.V.) (in a sterile, pharmaceutical grade PBS solution at a volume ≤200 μL) as described in Sakurai et al., J Pharmacol Exp Ther 356:341-353, 2016.

[4] = biological target: T2, LPL inhibited by apoC-III (Bos taurus, UniProt P11151); assay: LPL assay using human apoC-II deficient plasma as substrate with recombinant apoC-III; assay type: biochemical; conditions: 25 μM apoC-III, FIG. 50
T2 sequence (P11151 29-478): T1 sequence (P11151 29-478)
Method: as §3, §4
LPL assay was performed using Intralipid, high TG human plasma (1:50 dilution), or apoC-III transgenic mouse plasma (1:50 dilution). When Intralipid was used as a substrate, 25 or 50 μM recombinant ApoC-III was added as an inhibitor. When the high TG human plasma was used as a substrate, 25 or 50 μM recombinant ApoC-III was added as an inhibitor with or without pre-incubation at 37° C. for 1 hour. An apoC-II mimetic peptide was added at various concentrations.

[5] = biological target: T1, bovine LPL; assay: in vitro LPL assay using hypertriglyceridemia patient sera as substrate; assay type: biochemical
Method: as §1, §2, §3, §4

[6] = system: chylomicrons isolated from human plasma; assay: ApoC-III displacement study in chylomicrons isolated from human plasma; assay type: binding
Method: VLDL or chylomicrons isolated from human plasma were incubated with an apoC-II mimetic peptide for 1 hour at 37° C. and washed 3 times with PBS using spin filter with 100 kDa cutoff membrane. Supernatants were brought to the original volume with PBS and loaded to 4-12% Bis-TRIS SDS PAGE gel. ApoC-I, apoC-II, apoC-III, and apoE bands were identified by their corresponding size.

- affinity for the VLDL compared with the apolipoproteins [2]: higher affinity
- apoC-III displacement in VLDL ([2]; SDS PAGE): capable of displacing apoC-III
- LPL activation ([5]; patient sera TG about 1000 mg/dL to about 1700 mg/dL, FIGS. 15A-D): activated LPL in vitro
- LPL activity ([5]; sera of patients with high levels of apoC-III protein, FIG. 27): increased the LPL activity
- affinity for chylomicrons compared with the apolipoproteins [6]: higher affinity
Substance: DYLKEVFEKLRDLYEKFTAAnLSTYTGIFTDQVLSVLKGEE (DYLKEVFEKLRDLYEKFTAA[Nle]STYTGIFTDQVLSVLKGEE) [Delta6]
- LPL activation compared with full length apoC-II protein ([1]; 10 pM to 10 μM, FIG. 51): activated LPL in vitro more efficiently than the full length apoC-II protein
- promoting TG hydrolysis in the presence of LPL ([1]; FIG. 6): capable of promoting TG hydrolysis in the presence of LPL
- efficiency compared with native apoC-II protein ([1]; at lower concentrations, FIG. 6): worked more efficiently than the native apoC-II protein
- TG hydrolysis ([1]; concentrations from 100 pM to 10 nM, FIG. 14): exhibited the ability to promote TG hydrolysis in a dose dependent matter
- plasma TG ([3]; 0.25, 0.5, and 1 μmol/kg of body weight intraperitoneally, all doses, FIG. 23): rapid and marked reduction of plasma TG
- plasma TG ([3]; intraperitoneal injection): rapid and marked reduction of plasma TG
- total cholesterol level ([3]; intraperitoneal injection): decrease in the total cholesterol level
- effect on inhibition of LPL by apoC-III [4]: overcame the inhibitory effect of apoC-III and facilitated lipolysis
